From ChEMBL document CHEMBL2074239, “Characterization of uremic toxin transport by organic anion transporters in the kidney” (Kidney Int, 2004)
One block for each molecule: values may come before it.

Key:
[1] = target: T1, Organic anion transporter 3 (Rattus norvegicus, UniProt Q9R1U7); test: TP_TRANSPORTER: inhibition of benzylpenicillin uptake in Oat3-expressing HEK293 cells; assay type: functional, cell-based
T1 sequence (Q9R1U7 whole entry): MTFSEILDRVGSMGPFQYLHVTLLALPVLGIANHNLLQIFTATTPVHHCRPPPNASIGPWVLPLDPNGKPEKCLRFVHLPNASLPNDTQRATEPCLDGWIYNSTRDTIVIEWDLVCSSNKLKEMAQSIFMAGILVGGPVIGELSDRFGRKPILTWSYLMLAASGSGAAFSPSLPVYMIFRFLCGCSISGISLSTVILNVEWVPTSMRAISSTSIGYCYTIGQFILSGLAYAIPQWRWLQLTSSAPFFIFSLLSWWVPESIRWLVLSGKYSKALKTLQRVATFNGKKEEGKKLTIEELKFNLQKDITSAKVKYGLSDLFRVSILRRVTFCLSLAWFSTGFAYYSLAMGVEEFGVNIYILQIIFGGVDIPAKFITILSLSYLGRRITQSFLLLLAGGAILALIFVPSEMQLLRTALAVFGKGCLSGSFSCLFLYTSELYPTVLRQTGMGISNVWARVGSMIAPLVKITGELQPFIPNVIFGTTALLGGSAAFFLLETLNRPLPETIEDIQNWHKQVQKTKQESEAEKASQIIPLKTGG

[2] = target: T2, Organic anion transporter 3 (Homo sapiens, UniProt Q8TCC7); test: TP_TRANSPORTER: inhibition of benzylpenicillin uptake in OAT3-expressing HEK293 cells; assay type: functional, cell-based
T2 sequence (Q8TCC7 whole entry): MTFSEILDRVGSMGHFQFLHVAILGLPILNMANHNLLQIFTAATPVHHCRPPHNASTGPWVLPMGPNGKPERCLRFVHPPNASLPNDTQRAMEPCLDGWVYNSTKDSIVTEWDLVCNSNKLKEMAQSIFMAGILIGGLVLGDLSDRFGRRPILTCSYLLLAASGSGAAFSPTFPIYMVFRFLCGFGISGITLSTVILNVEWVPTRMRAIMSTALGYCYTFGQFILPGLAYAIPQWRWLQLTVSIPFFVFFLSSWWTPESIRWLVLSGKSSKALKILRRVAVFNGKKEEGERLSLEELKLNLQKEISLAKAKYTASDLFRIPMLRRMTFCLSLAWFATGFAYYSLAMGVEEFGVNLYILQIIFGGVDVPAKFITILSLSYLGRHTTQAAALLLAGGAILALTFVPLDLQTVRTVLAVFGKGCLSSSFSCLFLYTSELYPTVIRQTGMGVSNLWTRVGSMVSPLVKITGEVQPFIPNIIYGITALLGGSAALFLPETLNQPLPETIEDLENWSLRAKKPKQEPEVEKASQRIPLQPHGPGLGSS

[3] = substrate: CC(=O)Oc1c[nH]c2ccccc12; test: (§1) TP_TRANSPORTER: uptake in OAT1-expressing HEK293 cell; assay type: functional, cell-based
[4] = substrate: CCCc1oc(CCC(=O)O)c(C(=O)O)c1C; test: as §1; assay type: functional, cell-based
[5] = substrate: O=C(O)CNC(=O)c1ccccc1; test: cells, lysate or membranes named
[6] = substrate: O=S(=O)(O)Oc1c[nH]c2ccccc12; test: (§2) TP_TRANSPORTER: uptake in Oat3-expressing HEK293 cells; assay type: functional, cell-based
[7] = substrate: CCCc1oc(CCC(=O)O)c(C(=O)O)c1C; test: as §2; assay type: functional, cell-based
[8] = substrate: O=S(=O)(O)Oc1c[nH]c2ccccc12; test: (§3) TP_TRANSPORTER: uptake in OAT3-expressing HEK293 cells; assay type: functional, cell-based
[9] = substrate: CCCc1oc(CCC(=O)O)c(C(=O)O)c1C; test: as §3; assay type: functional, cell-based

- Ki [1]: 19 µM
- Ki [2]: 31 µM
Molecule: O=C(O)CNC(=O)c1ccccc1 [HIPPURIC ACID]

- Ki [1]: 582 µM
- Ki [2]: 491 µM
Molecule: CC(=O)Oc1c[nH]c2ccccc12 [INDOLE ACETATE]

B1: Solute carrier family 22 member 6 (Homo sapiens) (protein)
chain: MAFNDLLQQVGGVGRFQQIQVTLVVLPLLLMASHNTLQNFTAAIPTHHCRPPADANLSKNGGLEVWLPRDRQGQPESCLRFTSPQWGLPFLNGTEANGTGATEPCTDGWIYDNSTFPSTIVTEWDLVCSHRALRQLAQSLYMVGVLLGAMVFGYLADRLGRRKVLILNYLQTAVSGTCAAFAPNFPIYCAFRLLSGMALAGISLNCMTLNVEWMPIHTRACVGTLIGYVYSLGQFLLAGVAYAVPHWRHLQLLVSAPFFAFFIYSWFFIESARWHSSSGRLDLTLRALQRVARINGKREEGAKLSMEVLRASLQKELTMGKGQASAMELLRCPTLRHLFLCLSMLWFATSFAYYGLVMDLQGFGVSIYLIQVIFGAVDLPAKLVGFLVINSLGRRPAQMAALLLAGICILLNGVIPQDQSIVRTSLAVLGKGCLAASFNCIFLYTGELYPTMIRQTGMGMGSTMARVGSIVSPLVSMTAELYPSMPLFIYGAVPVAASAVTVLLPETLGQPLPDTVQDLESRWAPTQKEAGIYPRKGKQTRQQQEHQKYMVPLQASAQEKNGL
- Km [3]: 14 µM
- Km [4]: 141 µM

B2: Solute carrier family 22 member 6 (Rattus norvegicus) (protein)
chain: MAFNDLLKQVGGVGRFQLIQVTMVVAPLLLMASHNTLQNFTAAIPPHHCRPPANANLSKDGGLEAWLPLDKQGQPESCLRFTSPQWGPPFYNGTEANGTRVTEPCIDGWVYDNSTFPSTIVTEWNLVCSHRAFRQLAQSLYMVGVLLGAMVFGYLADRLGRRKVLILNYLQTAVSGTCAAYAPNYTVYCVFRLLSGMSLASIAINCMTLNVEWMPIHTRAYVGTLIGYVYSLGQFLLAGIAYAVPHWRHLQLVVSVPFFIAFIYSWFFIESARWYSSSGRLDLTLRALQRVARINGKQEEGAKLSIEVLRTSLQKELTLSKGQASAMELLRCPTLRHLFLCLSMLWFATSFAYYGLVMDLQGFGVSMYLIQVIFGAVDLPAKFVCFLVINSMGRRPAQMASLLLAGICILVNGIIPKSHTIIRTSLAVLGKGCLASSFNCIFLYTGELYPTVIRQTGLGMGSTMARVGSIVSPLVSMTAEFYPSMPLFIFGAVPVVASAVTALLPETLGQPLPDTVQDLKSRSRGKQNQQQQEQQKQMMPLQASTQEKNGL
- Km [5]: 28 µM

B3: Organic anion transporter 3 (Rattus norvegicus) (protein)
chain: T1 sequence (Q9R1U7 whole entry)
- Km [6]: 174 µM
- Km [7]: 11 µM

B4: Organic anion transporter 3 (Homo sapiens) (protein)
chain: T2 sequence (Q8TCC7 whole entry)
- Km [8]: 263 µM
- Km [9]: 27 µM
